Patent US20260209383A1, “SITE-[…] […] ANTIBODY DRUG CONJUGATES” (SEAGEN INC., priority 2022, published 2026)

Key:
[1] = test system: BxPC-3 cells; test: In vitro cytotoxicity assay (CellTiter-Glo), BxPC-3; type: cell-based
Description: (§1) In vitro cytotoxicity assay: The cytotoxic effect of an EC4-based ADC was measured by a cell proliferation assay employing the protocol in the Promega Corp. Technical Bulletin TB288; and Mendoza et a1., 2002, Cancer Res. 62:5485-5488), the methods of which are specifically incorporated by reference herein. Briefly, an aliquot of 40 μl of cell culture containing about 400 cells in medium was deposited in each well of a 384-well, opaque-walled plate. A 10 μL aliquot of free cytotoxic agent or ADC was added to the experimental wells and incubated for 96 hr and then incubated at room temperature for approximately 30 mins whereupon a volume of CellTiter-Glo™ reagent equal to the volume of cell culture medium present in each well was added. The contents were mixed for 2 mins on an orbital shaker to induce cell lysis and the plate was incubated at room temperature for 10 mins to stabilize the luminescence signal for recordation.
Anti-ITGB6 ADCs were tested for potency. The antibodies were engineered with the cysteine pairs disclosed above in the previous Examples. The efficacy of anti-ITGB6 EC4 ADCs were also tested against conventional anti-ITGB6 ADCs. The cells were treated with conventional or EC4 ADCs, then the remaining cells were counted to assess the cytotoxic effects of each EC4 variant compared to conventional ADCs. […] Cytotoxicity in BxPC-3 cells increased when the cells were treated with greater than 50 ng/mL of the positive control, conventional anti-ITGB6 ADCs (h2A2-mc-vc-MMAE). […] Both h2A2-mc-vc-MMAE and h2A2 S400C S114C-mc-vc-MMAE were cytotoxic to HPAFII cells when greater than 10 ng/mL ADC were used on the cells.

[2] = test system: HPAFII cells; test: In vitro cytotoxicity assay (CellTiter-Glo), HPAFII; type: cell-based
Description: as §1
Anti-ITGB6 ADCs were tested for potency. The antibodies were engineered with the cysteine pairs disclosed above in the previous Examples. The efficacy of anti-ITGB6 EC4 ADCs were also tested against conventional anti-ITGB6 ADCs. The cells were treated with conventional or EC4 ADCs, then the remaining cells were counted to assess the cytotoxic effects of each EC4 variant compared to conventional ADCs. […]

B1: h2A2-mc-vc-MMAE(4): conventional anti-ITGB6 ADC, h2A2 without engineered cysteines conjugated with mc-vc-MMAE; positive control (conjugate)
VH: QFQLVQSGAEVKKPGASVKVSCKASGYSFTDYNVNWVRQAPGQGLEWIGVINPKYGTTRYNQKFKGRATLTVDKSTSTAYMELSSLRSEDTAVYYCTRGLNAWDYWGQGTLVTVSS
VL: DIQMTQSPSSLSASVGDRVTITCGASENIYGALNWYQQKPGKAPKLLIYGATNLEDGVPSRFSGSGSGRDYTFTISSLQPEDIATYYCQNVLTTPYTFGQGTKLEIK
- % viability at top concentration ([1]; BXPC3): 36%
- x50 ([1]; BXPC3, 96 hr): 251 ng/mL
- ADC concentration above which cytotoxicity increased ([1]; BxPC-3 cells): greater than 50 ng/mL
- % viability at top concentration [2]: 35%
- x50 ([2]; 96 hr): 199 ng/mL
